Data reported in patent EP1674575A2.

Experiments:
[1] = target: LTβR (lymphotoxin β receptor) expressed by cells (human) (UniProt P36941); assay: cell-based or functional assay
[2] = target: mouse LTβR:Fc (amino acid residues 1 to Met221 of the extracellular domain of mouse LTβR) (mouse) (UniProt P50284); assay: ELISA, receptor:Fc capture, anti-FLAG detection
[3] = target: mouse HVEM:Fc (mouse HVEM Met1 to Ser205 fused to the Fc region of human IgG1) (mouse; human) (UniProt Q80WM9); assay: ELISA, receptor:Fc capture, anti-FLAG detection
human LTβR:Fc (human) = human LTβR:Fc (human) (UniProt P36941); assay: SPR (BIAcore), receptor:Fc amine-coupled, LIGHT as analyte 100-500 nM
[4] = target: HVEM:Fc (extracellular region of HVEM, 1 to K184, fused to the Fc region of human IgG1) (human) (UniProt Q92956); assay: as above
[5] = target: HVEM:Fc (extracellular region of HVEM, 1 to K184, fused to the Fc region of human IgG1) (human) (UniProt Q92956); assay: SPR (BIAcore)
[6] = target: HVEM:Fc (extracellular region of HVEM, 1 to K184, fused to the Fc region of human IgG1) (human) (UniProt Q92956); assay: SPR (BIAcore), receptor:Fc amine-coupled, LIGHT mutant as analyte 100-500 nM

Chain of HVEM:Fc (extracellular region of HVEM, 1 to K184, fused to the Fc region of human IgG1) (human) (Q92956 39-184 limits assumed): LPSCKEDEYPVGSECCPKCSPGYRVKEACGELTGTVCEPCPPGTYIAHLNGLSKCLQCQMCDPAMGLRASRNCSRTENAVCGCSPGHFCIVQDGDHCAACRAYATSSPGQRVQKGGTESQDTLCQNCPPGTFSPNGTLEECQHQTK
Chain of human LTβR:Fc (human) (P36941 31-227 limits assumed): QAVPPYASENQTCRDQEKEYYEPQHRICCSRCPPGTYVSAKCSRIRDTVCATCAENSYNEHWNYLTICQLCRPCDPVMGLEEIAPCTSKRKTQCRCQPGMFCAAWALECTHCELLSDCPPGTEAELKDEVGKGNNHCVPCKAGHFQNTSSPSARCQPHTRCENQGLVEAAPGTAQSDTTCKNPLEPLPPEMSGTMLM
Chain of mouse LTβR:Fc (amino acid residues 1 to Met221 of the extracellular domain of mouse LTβR) (mouse) (P50284 31-221 limits assumed): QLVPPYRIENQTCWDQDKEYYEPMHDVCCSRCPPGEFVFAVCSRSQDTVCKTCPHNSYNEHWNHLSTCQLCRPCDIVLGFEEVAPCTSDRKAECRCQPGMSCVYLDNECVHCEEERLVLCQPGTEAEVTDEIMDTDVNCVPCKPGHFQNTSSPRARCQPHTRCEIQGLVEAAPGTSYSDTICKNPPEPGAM
Chain of mouse HVEM:Fc (mouse HVEM Met1 to Ser205 fused to the Fc region of human IgG1) (mouse; human) (Q80WM9 39-205): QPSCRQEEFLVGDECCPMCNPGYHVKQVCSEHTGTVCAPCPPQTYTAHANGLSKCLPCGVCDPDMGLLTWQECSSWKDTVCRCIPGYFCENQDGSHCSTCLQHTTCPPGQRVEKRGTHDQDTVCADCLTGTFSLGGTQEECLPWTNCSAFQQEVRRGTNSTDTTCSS

fold lower affinity (against the human receptors) [2] [fold] | fold lower affinity (against the human receptors) [3] [fold] | Kd (human LTβR:Fc (human)) [nM] | koff (human LTβR:Fc (human)) [s⁻¹] | kon (human LTβR:Fc (human)) [M⁻¹ s⁻¹] | Kd [4] [nM] | koff [4] [s⁻¹] | kon [4] [M⁻¹ s⁻¹] | Substance | concentration for complete inhibition of HCMV cytopathic effect [1] [pM] | dose for 50% cytotoxicity to HT29 cells (MTT, with IFNγ) [1] [pM] | fold induction of ICAM expression by NHDF cells (flow cytometry, 5 nM) [1] [fold] | growth inhibition of HT29 cells by LIGHT (0.25 nM), MTT after 72 h [1] [%] | fold induction of ICAM expression by NHDF cells (flow cytometry, 20 nM) [1] [fold] | fold lower affinity than LIGHT t66 [5] [fold] | Kd [6] [nM] | koff [6] [s⁻¹] | kon [6] [M⁻¹ s⁻¹]
10 | 10 | 4.5 | 0.00012 | 27000 | 3.9 | 4.8e-05 | 12000 | LIGHTt66-FLAG (recombinant soluble homotrimeric human LIGHT lacking the N-terminal 66 amino acids, N-terminal FLAG epitope) (ligand) | 100 | 10 to 100 | 4 | 50 |  |  |  |  | 
 |  |  |  |  |  |  |  | LIGHTt66-FLAG mutant G119E (from UniProt O43557 67-240) (ligand) |  |  |  |  | < 1.5 | 30 | 114 | 0.002 | 18000
